Measured values as given in paper PMC6004266.

Molecular target: Alternative Complex III from Flavobacterium johnsoniae (Flavobacterium johnsoniae (endogenous, ATCC 17061 strain UW101))
Experiment: cryo-EM structure

**Q.** Which stoichiometry N (ACIII:cyt aa3) does the source give for “aa3-type cytochrome c oxidase from Flavobacterium johnsoniae (complex)” here?
**A.** 1
